Source: patent publication US20090208447A1 (MEDIGENE, published 2009)
Numbering of substitutions follows the chain as printed.

B1: soluble truncated variant of the Wild-Type ILT-2 molecule (extracellular domains D1 and D2) (receptor)
chain: MGHLPKPTLWAEPGSVITQGSPVTLRCQGGQETQEYRLYREKKTAPWITRIPQELVKKGQFPIPSITWEHAGRYRCYYGSDTAGRSESSDPLELVVTGAYIKPTLSAQPSPVVNSGGNVTLQCDSQVAFDGFILCKEGEDEHPQCLNSQPHARGSSRAIFSVGPVSPSRRWWYRCYAYDSNSPYEWSLPSDLLELLVL
notes: also called soluble wild-type ILT-2 polypeptide; soluble two domain form of the wild-type ILT-2
B2: SEQ ID NO 40 (receptor)
chain: B1 chain with S21R, A99V
B3: SEQ ID NO 49 (receptor)
chain: B1 chain with W47Q, A99V, I101V, K102A, S168G
B4: SEQ ID NO 48 (receptor)
chain: B1 chain with Y77Q, Y78G, G79V, D81Q, A99V
B5: SEQ ID NO 51 (receptor)
chain: B1 chain with A99I, I101Q, K102R, S168G
B6: SEQ ID NO 54 (receptor)
chain: B1 chain with A99I, I101K, K102Q, S168G
B7: SEQ ID NO 47 (receptor)
chain: B1 chain with S80G, D81Q, T82E, A83G, G84A, A99V
B8: SEQ ID NO 59 (receptor)
chain: B1 chain with Q19L, S21Q, A83S, G84Q, R85W, E87A, A99I, I101L, K102A
B9: SEQ ID NO 58 (receptor)
chain: B1 chain with Q19M, G20D, S21Q, A83S, G84Q, R85W, E87A, A99I, I101L, K102A
B10: SEQ ID NO 42 (receptor)
chain: B1 chain with Q19L, S21Q, A99V, S168G
B11: SEQ ID NO 44 (receptor)
chain: B1 chain with I66V, A99V
B12: SEQ ID NO 50 (receptor)
chain: B1 chain with A99I, I101K, K102A, S168G
B13: SEQ ID NO 41 (receptor)
chain: B1 chain with Q19V, S21Q, A99V, S168G
B14: SEQ ID NO 56 (receptor)
chain: B1 chain with Q19M, G20D, S21Q, A99I, I101L, K102A
B15: SEQ ID NO 53 (receptor)
chain: B1 chain with A99I, I101L, K102Q, S168G
B16: SEQ ID NO 43 (receptor)
chain: B1 chain with A99V, S168G
B17: SEQ ID NO 52 (receptor)
chain: B1 chain with A99I, I101Q, K102A, S168G
B18: SEQ ID NO 55 (receptor)
chain: B1 chain with A99I, I101Q
B19: SEQ ID NO 57 (receptor)
chain: B1 chain with Q19L, S21Q, A99I, I101L, K102A
B20: SEQ ID NO 45 (receptor)
chain: B1 chain with Y77V, Y78G, G79W, S80A, D81V, A99V
B21: SEQ ID NO 62 (receptor)
chain: MHLPKPTLWAEPGSVITMDQPVTLRCQGGQETQEYRLYREKKTAPWITRIPQELVKKGQFPIPSITWEHAGRYRCYYGSDTSQWSASSDPLELVVTGVYIKPTLSAQPSPVVNSGGNVTLQCDSQVAFDGFILCKEGEDEHPQCLNSQPHARGSSRAIFSVGPVSPSRRWWYRCYAYDSNSPYEWSLPSDLLELDVDG
B22: SEQ ID NO 75 (receptor)
chain: B21 chain with S79T, D80Q
B23: SEQ ID NO 79 (receptor)
chain: B21 chain with L187D
B24: SEQ ID NO 78 (receptor)
chain: B21 chain with I158E
B25: SEQ ID NO 71 (receptor)
chain: B21 chain with S79T, D80Q, S82A, Q83G, W84R, A86E
B26: SEQ ID NO 63 (receptor)
chain: B21 chain with W171R
B27: SEQ ID NO 77 (receptor)
chain: B21 chain with L145D
B28: SEQ ID NO 72 (receptor)
chain: B21 chain with Y76M, Y77Q, G78Y, S79T, D80L, S82A, Q83G, W84R, A86E
B29: SEQ ID NO 66 (receptor)
chain: B21 chain with M18L, D19G
B30: SEQ ID NO 70 (receptor)
chain: B21 chain with M18L, D19E, Q20S
B31: SEQ ID NO 74 (receptor)
chain: B21 chain with S79G, D80Q, T81E, S82G, Q83A, W84R, A86E
B32: SEQ ID NO 67 (receptor)
chain: B21 chain with M18L, D19G, Q20S
B33: SEQ ID NO 64 (receptor)
chain: B21 chain with R49L, E140G, R173W
B34: SEQ ID NO 73 (receptor)
chain: B21 chain with Y76V, Y77I, G78Q, S79R, D80G, S82A, Q83G, W84R, A86E
B35: SEQ ID NO 80 (receptor)
chain: B21 chain with C134S, C144S
B36: SEQ ID NO 65 (receptor)
chain: B21 chain with K41R
B37: SEQ ID NO 69 (receptor)
chain: B21 chain with M18L, D19Q, Q20S
B38: SEQ ID NO 68 (receptor)
chain: B21 chain with M18L, D19R, Q20S
B39: SEQ ID NO 76 (receptor)
chain: MGHLPKPTLWAEPGSVITMDQPVTLRCQGGQETQQYRLYREKKTAPWITRIPQELVKKGQFPIPSITWEHAGRYRCYYGSDTRQWSASSDPLELVVTGVYIKPTLSAQPSPVVNSGGNVTLQCDSQVAFDGFILCKEGEDDHPQCLNSQPHARGSSRAIFSVGPVSPSRRWRYRCYAYDSNSPYEWSLPSDLLELDVDG
B40: SEQ ID NO 60 (receptor)
chain: MGHLPKPTLWAEPGSVITMDQPVTLRCQGGQETQEYRLYREKKTAPWITRIPQELVKKGQFPIPSITWEHAGRYRCIGRSQTSQWSASSDPLELVVTGIYLAPTLSAQPSPVVNSGGNVTLQCDSQVAFDGFILCKEGEDEHPQCLNSQPHARGSSRAIFSVGPVSPSRRWWYRCYAYDSNSPYEWSLPSDLLELLVL
B41: SEQ ID NO 61 (receptor)
chain: B40 chain with M19L, D20G

Columns and labels:
[1] = target: T1, HLA-A*0201 loaded with the Carcinoembryonic antigen (CEA)-derived … peptide (biotinylated on the C-terminal biotinylation tag); experiment: SPR (Biacore), method of Example 4
[2] = target: T1, HLA-A*0201 loaded with the …; experiment: SPR (Biacore 3000), biotinylated pMHC immobilised on streptavidin
[3] = target: T1, HLA-A*0201 loaded with the …; experiment: SPR (Biacore), Example 4

Binder | koff [1] | Kd [2] | Kd [3] | koff [3]
B1 | 2.4 s⁻¹ | ~6000 nM |  | 
B2 |  |  | ≤ 1000 nM | ≤ 2 s⁻¹
B3 |  |  | ≤ 1000 nM | ≤ 2 s⁻¹
B4 |  |  | ≤ 1000 nM | ≤ 2 s⁻¹
B5 |  |  | ≤ 1000 nM | ≤ 2 s⁻¹
B6 |  |  | ≤ 1000 nM | ≤ 2 s⁻¹
B7 |  |  | ≤ 1000 nM | ≤ 2 s⁻¹
B8 |  |  | ≤ 1000 nM | ≤ 2 s⁻¹
B9 |  |  | ≤ 1000 nM | ≤ 2 s⁻¹
B10 |  |  | ≤ 1000 nM | ≤ 2 s⁻¹
B11 |  |  | ≤ 1000 nM | ≤ 2 s⁻¹
B12 |  |  | ≤ 1000 nM | ≤ 2 s⁻¹
B13 |  |  | ≤ 1000 nM | ≤ 2 s⁻¹
B14 |  |  | ≤ 1000 nM | ≤ 2 s⁻¹
B15 |  |  | ≤ 1000 nM | ≤ 2 s⁻¹
B16 |  |  | ≤ 1000 nM | ≤ 2 s⁻¹
B17 |  |  | ≤ 1000 nM | ≤ 2 s⁻¹
B18 |  |  | ≤ 1000 nM | ≤ 2 s⁻¹
B19 |  |  | ≤ 1000 nM | ≤ 2 s⁻¹
B20 |  |  | ≤ 1000 nM | ≤ 2 s⁻¹
B21 |  |  | ≤ 1000 nM | ≤ 2 s⁻¹

Binder | koff [1] | Kd [2] | Kd [3] | koff [3]
B22 |  |  | ≤ 1000 nM | ≤ 2 s⁻¹
B23 |  |  | ≤ 1000 nM | ≤ 2 s⁻¹
B24 |  |  | ≤ 1000 nM | ≤ 2 s⁻¹
B25 |  |  | ≤ 1000 nM | ≤ 2 s⁻¹
B26 |  |  | ≤ 1000 nM | ≤ 2 s⁻¹
B27 |  |  | ≤ 1000 nM | ≤ 2 s⁻¹
B28 |  |  | ≤ 1000 nM | ≤ 2 s⁻¹
B29 |  |  | ≤ 1000 nM | ≤ 2 s⁻¹
B30 |  |  | ≤ 1000 nM | ≤ 2 s⁻¹
B31 |  |  | ≤ 1000 nM | ≤ 2 s⁻¹
B32 |  |  | ≤ 1000 nM | ≤ 2 s⁻¹
B33 |  |  | ≤ 1000 nM | ≤ 2 s⁻¹
B34 |  |  | ≤ 1000 nM | ≤ 2 s⁻¹
B35 |  |  | ≤ 1000 nM | ≤ 2 s⁻¹
B36 |  |  | ≤ 1000 nM | ≤ 2 s⁻¹
B37 |  |  | ≤ 1000 nM | ≤ 2 s⁻¹
B38 |  |  | ≤ 1000 nM | ≤ 2 s⁻¹
B39 |  |  | ≤ 1000 nM | ≤ 2 s⁻¹
B40 |  |  | ≤ 1000 nM | ≤ 2 s⁻¹
B41 |  |  | ≤ 1000 nM | ≤ 2 s⁻¹
